Key:
human CD116 T187A = target: T1, human CD116 T187A (human, UniProt P15509 23-400); assay: flow cytometry, Fab 0.25 µg/mL on HEK-293T cells expressing the mutant
T1 construct: whole, on cells
T1 sequence (looked up): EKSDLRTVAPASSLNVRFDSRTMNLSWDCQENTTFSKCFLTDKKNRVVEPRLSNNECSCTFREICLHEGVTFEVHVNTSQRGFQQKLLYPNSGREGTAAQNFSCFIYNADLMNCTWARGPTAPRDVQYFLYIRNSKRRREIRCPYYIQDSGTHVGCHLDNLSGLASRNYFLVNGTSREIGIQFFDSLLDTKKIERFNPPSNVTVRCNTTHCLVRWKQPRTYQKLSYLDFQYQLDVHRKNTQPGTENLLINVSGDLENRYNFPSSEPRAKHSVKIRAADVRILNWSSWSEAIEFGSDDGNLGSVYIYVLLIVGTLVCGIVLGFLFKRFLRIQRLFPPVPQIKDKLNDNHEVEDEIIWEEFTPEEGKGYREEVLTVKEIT

human CD116 L249A = target: T2, human CD116 L249A (human, UniProt P15509 23-400); assay: as above
T2 construct: whole, on cells
T2 sequence (looked up): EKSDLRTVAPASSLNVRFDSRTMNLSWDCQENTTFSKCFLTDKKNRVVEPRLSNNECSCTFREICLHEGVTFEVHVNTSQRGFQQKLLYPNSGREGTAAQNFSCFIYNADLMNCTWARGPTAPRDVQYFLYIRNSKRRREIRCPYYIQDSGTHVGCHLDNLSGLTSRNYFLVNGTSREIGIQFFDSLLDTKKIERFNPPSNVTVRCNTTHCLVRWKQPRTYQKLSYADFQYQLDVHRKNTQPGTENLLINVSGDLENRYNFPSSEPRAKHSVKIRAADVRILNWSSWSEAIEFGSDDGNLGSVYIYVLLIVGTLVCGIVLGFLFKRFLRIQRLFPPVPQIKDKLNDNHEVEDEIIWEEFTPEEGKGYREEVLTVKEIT

human CD116 K158A = target: T3, human CD116 K158A (human, UniProt P15509 23-400); assay: as above
T3 construct: whole, on cells
T3 sequence (looked up): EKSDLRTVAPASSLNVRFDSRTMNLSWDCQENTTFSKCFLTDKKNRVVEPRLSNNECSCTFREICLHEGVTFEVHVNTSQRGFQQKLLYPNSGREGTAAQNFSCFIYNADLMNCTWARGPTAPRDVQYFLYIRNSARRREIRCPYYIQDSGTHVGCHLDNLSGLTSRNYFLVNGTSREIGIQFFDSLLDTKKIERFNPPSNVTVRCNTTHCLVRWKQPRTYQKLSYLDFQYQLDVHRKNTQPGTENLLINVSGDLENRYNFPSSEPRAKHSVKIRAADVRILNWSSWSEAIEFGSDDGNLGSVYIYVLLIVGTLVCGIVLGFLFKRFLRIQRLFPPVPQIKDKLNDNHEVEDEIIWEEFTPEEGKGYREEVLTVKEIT

human CD116 F251A = target: T4, human CD116 F251A (human, UniProt P15509 23-400); assay: as above
T4 construct: whole, on cells
T4 sequence (looked up): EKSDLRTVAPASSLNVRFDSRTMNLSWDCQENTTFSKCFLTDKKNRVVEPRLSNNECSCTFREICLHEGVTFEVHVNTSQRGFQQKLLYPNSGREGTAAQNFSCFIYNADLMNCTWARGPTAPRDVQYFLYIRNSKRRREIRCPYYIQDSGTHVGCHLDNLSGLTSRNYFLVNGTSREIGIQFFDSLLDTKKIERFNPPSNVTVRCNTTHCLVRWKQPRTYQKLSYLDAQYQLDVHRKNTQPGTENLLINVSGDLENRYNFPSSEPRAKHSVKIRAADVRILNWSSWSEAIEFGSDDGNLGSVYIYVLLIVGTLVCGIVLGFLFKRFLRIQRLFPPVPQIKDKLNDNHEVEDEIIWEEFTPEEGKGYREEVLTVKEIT

human CD131 R221A = target: T5, human CD131 R221A (human, UniProt P32927 17-897); assay: flow cytometry, Fab on HEK-293T cells expressing the mutant; labels of this column stand one row too low, mutant assigned after shifting them up (text: R221 is an epitope residue)
T5 construct: whole, on cells; also called R221 Ala substitution
T5 sequence (looked up): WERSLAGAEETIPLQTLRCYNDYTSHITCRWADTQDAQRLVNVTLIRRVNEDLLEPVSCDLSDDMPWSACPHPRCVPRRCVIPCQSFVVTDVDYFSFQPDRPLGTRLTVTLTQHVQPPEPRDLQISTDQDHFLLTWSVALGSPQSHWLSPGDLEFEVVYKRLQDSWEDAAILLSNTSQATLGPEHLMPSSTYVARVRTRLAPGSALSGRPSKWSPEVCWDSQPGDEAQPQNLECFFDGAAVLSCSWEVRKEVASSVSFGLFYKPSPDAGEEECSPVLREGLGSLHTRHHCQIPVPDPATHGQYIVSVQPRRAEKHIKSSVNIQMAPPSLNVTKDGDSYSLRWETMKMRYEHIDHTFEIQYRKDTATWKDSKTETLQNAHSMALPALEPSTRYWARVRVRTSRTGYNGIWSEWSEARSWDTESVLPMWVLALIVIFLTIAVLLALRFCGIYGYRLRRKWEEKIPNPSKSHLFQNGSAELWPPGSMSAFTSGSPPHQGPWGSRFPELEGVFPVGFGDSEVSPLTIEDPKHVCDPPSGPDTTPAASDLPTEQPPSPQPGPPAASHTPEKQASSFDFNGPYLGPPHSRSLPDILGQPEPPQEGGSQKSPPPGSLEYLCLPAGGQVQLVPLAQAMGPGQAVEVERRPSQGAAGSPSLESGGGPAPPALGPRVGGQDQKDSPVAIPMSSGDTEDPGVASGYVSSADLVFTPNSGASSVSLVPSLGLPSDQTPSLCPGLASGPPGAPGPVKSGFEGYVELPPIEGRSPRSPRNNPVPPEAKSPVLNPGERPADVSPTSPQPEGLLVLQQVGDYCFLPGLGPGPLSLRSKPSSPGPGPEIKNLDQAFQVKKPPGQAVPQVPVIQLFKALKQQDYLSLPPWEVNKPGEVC

B1: anti-CD116 antibody 116-408, Fab (Fab, V domains shown)
VH: EVQLVQSGAEVKKPGASVKVSCKVSGYTLTDLSMHWVRQAPGKGLEWMGGFDPEDGERIYAQKFQGRVTMTEDTSTDTAYMELSSLRSEDTAVYYCATGLFYYYYGMDVWGQGTMVTVSS
VL: not shown
Binding Reactivity (% WT) (human CD116 T187A): 16.2 % WT | Binding Reactivity (% WT) (human CD116 L249A): 92.4 % WT | Binding Reactivity (% WT) (human CD116 K158A): 35.2 % WT | Binding Reactivity (% WT) (human CD116 F251A): 99.3 % WT

B2: anti-CD131 antibody 131-B2, Fab (Fab, V domains shown)
VH: QVQLVQSGAEVKEPGASVKISCKASGYTFTNDYMHWVRQAPGQGLEWMGIINPTGGGTSYAQKFRGRVTMTRDTSTSTVYMELSSLRSEDTAVFYCARERYYGSGTYFNIGLWYFDLWGRGTLVTVSS
VL: not shown
notes: Fab made from the antibody by an enzyme treatment
Binding Reactivity (% WT) (human CD131 R221A): 38 % WT

Reference: US20250092148A1 (Kyowa Kirin, published 2025)
